From article doi:10.1101/2020.08.24.264606 (bioRxiv, 2020)

Target: CIP2A(1-560)-V5 (human, UniProt Q8TCG1-1 1-560)
Experiment: pull-down

B1: GST-NOCIVA (CIP2A 1-545 + 13 aa peptide) (natural protein)
chain: not shown
Q: Does B1 bind?
A: Result: binds
